The values below are quoted from earlier work in PMC5979509.

Some results are limits rather than exact numbers.

The data set addresses Neuropilin-1 (Homo sapiens) (UniProt O14786). In words: radioligand binding.
UniProt O14786, sequence (O14786 22-923): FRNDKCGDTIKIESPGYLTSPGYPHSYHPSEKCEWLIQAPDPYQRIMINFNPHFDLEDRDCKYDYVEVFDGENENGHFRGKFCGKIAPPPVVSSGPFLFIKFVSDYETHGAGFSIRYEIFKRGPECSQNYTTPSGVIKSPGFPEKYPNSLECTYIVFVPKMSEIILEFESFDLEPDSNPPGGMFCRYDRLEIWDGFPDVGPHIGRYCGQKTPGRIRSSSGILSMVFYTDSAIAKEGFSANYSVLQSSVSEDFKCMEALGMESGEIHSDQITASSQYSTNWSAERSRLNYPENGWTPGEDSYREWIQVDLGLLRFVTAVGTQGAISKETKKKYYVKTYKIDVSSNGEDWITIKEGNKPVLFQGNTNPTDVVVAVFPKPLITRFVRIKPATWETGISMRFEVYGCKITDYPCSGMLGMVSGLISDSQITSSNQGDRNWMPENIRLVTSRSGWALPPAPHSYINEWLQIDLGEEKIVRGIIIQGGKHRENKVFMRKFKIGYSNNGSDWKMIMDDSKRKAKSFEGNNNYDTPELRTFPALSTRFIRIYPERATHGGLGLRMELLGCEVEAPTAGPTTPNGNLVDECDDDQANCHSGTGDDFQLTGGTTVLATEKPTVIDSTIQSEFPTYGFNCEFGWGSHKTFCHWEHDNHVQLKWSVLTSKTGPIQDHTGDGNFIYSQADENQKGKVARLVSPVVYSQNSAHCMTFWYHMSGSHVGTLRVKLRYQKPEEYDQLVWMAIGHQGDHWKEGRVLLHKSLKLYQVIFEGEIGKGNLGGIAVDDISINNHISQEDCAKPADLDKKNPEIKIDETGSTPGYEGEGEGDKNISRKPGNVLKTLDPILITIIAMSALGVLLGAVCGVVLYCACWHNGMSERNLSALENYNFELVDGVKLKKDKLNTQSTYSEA

For orientation: Kd means the equilibrium constant for the complex coming apart. Take VEGF165a (from UniProt P15692): the Kd is < 3 nM.
